Target: the molecule itself
Assay: high-speed atomic force microscopy (HS-AFM); pre-pore rings on supported E. coli lipid bilayer, buffer acidified with HCl to ~pH 4.0 in the fluid cell; imaging at 200 ms temporal resolution, room temperature; pre-pore ring openings and pore arcs

B1: Ectodomain of mPFN2 (Perforin-2) (domain or fragment, mouse (printed as mPFN2), UniProt A1L314 20-652, looked up)
chain: DKPLGETGTTGFQICKNALKLPVLEVLPGGGWDNLRNVDMGRVMDLTYTNCKTTEDGQYIIPDEVYTIPQKESNLEMNSEVLESWMNYQSTTSLSINTELALFSRVNGKFSTEFQRMKTLQVKDQAVTTRVQVRNRIYTVKTTPTSELSLGFTKALMDICDQLEKNQTKMATYLAELLILNYGTHVITSVDAGAALVQEDHVRSSFLLDNQNSQNTVTASAGIAFLNIVNFKVETDYISQTSLTKDYLSNRTNSRVQSFGGVPFYPGITLETWQKGITNHLVAIDRAGLPLHFFIKPDKLPGLPGPLVKKLSKTVETAVRHYYTFNTHPGCTNVDSPNFNFQANMDDDSCDAKVTNFTFGGVYQECTELSGDVLCQNLEQKNLLTGDFSCPPGYSPVHLLSQTHEEGYSRLECKKKCTLKIFCKTVCEDVFRVAKAEFRAYWCVAAGQVPDNSGLLFGGVFTDKTINPMTNAQSCPAGYIPLNLFESLKVCVSLDYELGFKFSVPFGGFFSCIMGNPLVNSDTAKDVRAPSLKKCPGGFSQHLAVISDGCQVSYCVKAGIFTGGSLLPVRLPPYTKPPLMSQVATNTVIVTNSETARSWIKDPQTNQWKLGEPLELRRAMTVIHGDSNGMSGG
notes: Perforin-2 (PFN2, MPEG1), mouse (printed as mPFN2), ectodomain, UniProt A1L314 residues 20-652; Applied as monomers (0.043 mg/ml) and self-assembles on the support; The 1D4 tag is inferred from the resin; also called MPEG1; source: HEK293T or HEK293S cells, transient transfection; purified from the media using anti-1D4 antibody-coupled agarose resin
stoichiometry N: 16 subunits

Source: paper PMC9418332, “Perforin-2 clockwise hand-over-hand pre-pore to pore transition mechanism” (Nature Communications, 2022)
